Measured values taken from paper PMC6389896 (Communications Biology, 2019).
Values joined by “and” are separate entries in the source; they are usually repeats but may differ in a detail not shown here. Identical values can stand only once. One block for each molecule: values may come before it.

Assays:
[1] = Sodium fluorescein leakage into CSF after BCCAO (BBB integrity); assay type: in vivo, mouse; conditions: individual animals; for CSF/blood fluorescent: 60 min after injection
Protocol: WT and Ager^−/− male mice (8 to 12-weeks-old and weighing 20–30 g) were used for the experiments. The animals were anaesthetised with 2.0% halothane and maintained with 0.5% halothane through a facemask. Brain ischaemia was induced via bilateral occlusion of the common carotid arteries (BCCAO) for 15 min using microvascular clips as described previously. Laser-Doppler flowmetry was used to measure cerebral cortical microperfusion (3 mm lateral to bregma). […] Rectal temperature was maintained at 36.5–37.5 °C by using a heat lamp and a blanket until the mice were completely alert. The control animals underwent a sham-operation that was identical with the exception of the occlusion. To quantify accumulative BBB leakages, 200 µl of sodium fluorescein (Sigma-Aldrich) at a concentration of 6 mg/ml in PBS was injected via the venous sinus of retro-orbital in the mice. […] Sixty minutes later, the CSF and blood were collected according to the protocol for sampling of CSF and blood from mice[80]. The fluorescence of CSF and serum were measured at 460 nm at an excitation wavelength of 355 nm by using a Fluoroscan Ascent FL luminometer (Labsystems. Wilmington, DE, USA). Results are presented as relative fluorescence units (CSF value/serum value) (%).

human esRAGE = human esRAGE (Homo sapiens, UniProt Q15109); experiment: Plate competition assay of oxytocin-RAGE complex formation by RAGE ligands and RAGE domains; assay type: binding; conditions: esRAGE preincubated with ligand, added 30 min to wells with immobilised oxytocin, HRP-anti-RAGE, n = 3
human esRAGE, sequence (Q15109 23-347 isoform Q15109-3 limits assumed): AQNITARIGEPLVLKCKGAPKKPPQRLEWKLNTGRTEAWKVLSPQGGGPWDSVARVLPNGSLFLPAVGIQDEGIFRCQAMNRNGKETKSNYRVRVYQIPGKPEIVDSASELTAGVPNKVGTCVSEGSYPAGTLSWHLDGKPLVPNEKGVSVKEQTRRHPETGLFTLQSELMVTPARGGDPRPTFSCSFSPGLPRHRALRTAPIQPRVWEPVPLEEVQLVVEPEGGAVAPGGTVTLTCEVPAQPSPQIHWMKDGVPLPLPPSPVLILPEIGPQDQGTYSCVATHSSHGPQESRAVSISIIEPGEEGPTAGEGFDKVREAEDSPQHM
Protocol: RAGE ligands were S100B (Sigma-Aldrich, St. Louis, MO, USA)[30], AGE-BSA (glyceraldehyde-derived AGE-BSA)[27],[32],[41], amyloid β 1-42 (Sigma-Aldrich), and high-mobility group box 1 (HMGB1, Sigma-Aldrich)[42].
Supplementary Figure 3. (a–d) Plate competition assays. Preincubation mixtures of esRAGE (1 mg/ml) with indicated concentrations of S100B (a),AGE-BSA (AGE) (b), amyloid b (c),or high-mobility group box 1 (HMGB1) (d) were added into wells for 30 min on which […]
The formation of oxytocin–RAGE complexes was detected with horseradish peroxidase (HRP)-conjugated anti-RAGE antibody (n = 3). All […]
and C2 domains (30 mg/ml) were used with this system (n = 3). The formation of oxytocin– RAGE complexes was detected with horseradish peroxidase (HRP)-conjugated anti-RAGE antibody (n = 3). *P < 0.05. Allgraphs show mean ± SEM.
(1 picture or pasted object on this page, not shown here)

[2] = molecular target: human endogenous soluble RAGE (esRAGE), recombinant (human); experiment: SPR; human esRAGE amine-coupled to a CM5 chip (~5000 RU), oxytocin flowed over; BIAcore 2000; 10 mM HEPES pH 7.4, 0.15 M NaCl, 3 mM EDTA, 0.005% surfactant P-20; 25 °C, 20 μl/min; apparent KD
[3] = [13C,15N]oxytocin in CSF after subcutaneous injection, LC-MS/MS; assay type: in vivo, mouse
Protocol: (§1) High MW proteins in diluted mouse plasma were precipitated with 2% TCA; supernatants obtained after centrifugation were analysed by LC-MS/MS. Mouse CSF samples diluted 1:5 with PBS (25 μl) were analysed directly. […] The eluting 1.0 ml fractions (Fig. 1h) were analysed by LC-MS/MS. The 25 μl samples were separated using a ZORBAX 300SB-C8 column (2.1 × 150 mm, 5 μm; CA, USA) eluted with a linear gradient of 0.1% (v/v) formic acid and acetonitrile (0–30%) at 0.3 ml/min and 50 °C.

[4] = test system: monkey brain capillary endothelial cells; experiment: In vitro blood-brain barrier (BBB) model (MBT-24H), transport between luminal and abluminal chambers, control or RAGE shRNA knockdown; conditions: 1.0 ng/ml in luminal chamber, 3 h, control vs RAGE knockdown, ELISA, n = 4
Protocol: EC, monkey brain capillary endothelial cells; Peri, rat brain pericytes; Astro, rat astrocytes. […] The endothelial cells used in the upper chamber in a were treated with RAGE shRNA (knockdown, KD) or control (C or CNT) vectors to assess the effects of RAGE knockdown. […] Values are mean ± SEM
For the in vitro BBB model (MBT-24H, PharmaCo-Cell Co., Nagasaki, Japan), rat brain pericytes (1.5 × 10^4 cells/cm^2) and rat astrocytes (1.5 × 10^4 cells/cm^2) were seeded on the bottom of the collagen-coated polyester membranes of Transwell inserts (Corning Life Sciences, MA, USA). After 16 h the cells firmly adherent, monkey brain vascular endothelial cells (1.5 × 10^5 cells/cm^2) were then seeded on the upper side of the inserts in 24-well culture plates. The in vitro BBB models were established within 4 days of seeding the cells according to the manufacturer’s instructions. Trans-endothelial electrical resistance (TEER), which primarily reflects the flux of sodium ions through the cell layers in the culture conditions, was measured with an epithelial-volt-ohm metre and an Endohm-6 chamber electrodes (World Precision Instruments, Sarasota, FL, USA). The TEERs of the coated, cell-free filters were subtracted from the measured TEER values of the models and shown as Ω cm^2. The apparent permeability constants (Papp) between luminal and abluminal chambers were calculated from the distribution ratios. Endothelial expression was silenced using RAGE shRNA and the pSilencer 3.0-H1 vector (Ambion, Austin, TX, USA)[41]. […]

soluble RAGE = molecular target: T1, soluble RAGE (Homo sapiens, UniProt Q15109); experiment: Gel permeation, anti-RAGE and esRAGE affinity chromatography of human serum with EIA and LC-MS/MS; assay type: binding; conditions: 50 ml human serum
T1 construct: from tissue; host or cells: human serum
T1 sequence (Q15109 23-347 isoform Q15109-3): as the sequence (Q15109 23-347 isoform Q15109-3 limits assumed) above
Protocol: Polypeptides were separated using a Superdex 75 pg HiLoad 26/600 column (GE Healthcare Japan, Tokyo) eluted at 1.0 ml/min with 5 mM ammonium acetate pH 7.8. […] Anti-RAGE monoclonal antibody (1.0 mg) or purified esRAGE (0.5 mg) were coupled to NHS-activated HiTrap (GE Healthcare). Sera samples (50 ml) from healthy consenting adults were applied to the HiTrap-anti-RAGE column equilibrated with 50 mM Tris–HCl (pH 7.4) and 0.15 M NaCl. Alternatively, the low molecular weight (<3000, Amicon Ultracel3K) fraction of human serum (50 ml) was applied to the HiTrap-esRAGE column previously equilibrated with phosphate-buffered saline (PBS). After washing the bound proteins were eluted with 100 mM glycine-HCl buffer (pH 2.5) for HiTrap-anti-RAGE or 10 mM Tris–HCl (pH 7.4) and 2.0 M NaCl for HiTrap-esRAGE and the eluates were analysed by EIA or LC-MS/MS and Western blotting.
as §1
Supplementary Figure 1. […]

oxytocin receptor = oxytocin receptor (UniProt P30559); conditions: cited from earlier work
oxytocin receptor, sequence (P30559 whole entry): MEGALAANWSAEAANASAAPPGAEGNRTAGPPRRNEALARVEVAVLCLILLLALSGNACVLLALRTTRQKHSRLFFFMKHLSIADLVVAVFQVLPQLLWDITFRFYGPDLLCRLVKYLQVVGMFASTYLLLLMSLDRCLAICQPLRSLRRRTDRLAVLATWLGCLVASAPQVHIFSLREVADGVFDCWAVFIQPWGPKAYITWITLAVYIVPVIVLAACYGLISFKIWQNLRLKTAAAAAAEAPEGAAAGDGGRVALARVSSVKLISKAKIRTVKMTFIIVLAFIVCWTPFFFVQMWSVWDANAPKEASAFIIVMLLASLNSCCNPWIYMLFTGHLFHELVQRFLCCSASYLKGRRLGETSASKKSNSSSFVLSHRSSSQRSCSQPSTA

[5] = molecular target: oxytocin receptor (high affinity form) (UniProt P30559); conditions: cited from earlier work
oxytocin receptor (high affinity form), sequence (P30559 whole entry): as above

oxytocin, sequence (P01178 whole entry, looked up): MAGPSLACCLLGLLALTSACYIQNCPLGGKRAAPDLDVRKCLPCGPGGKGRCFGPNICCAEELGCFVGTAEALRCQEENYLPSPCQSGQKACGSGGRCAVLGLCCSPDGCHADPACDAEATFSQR
Oxytocin (synthetic), sequence (P01178 whole entry, looked up): as above

CSF/blood fluorescent ([1]; Ager-/- Sham): 0.03456% and 0.01791% and 0.02565% | CSF/blood fluorescent ([1]; WT BCCAO): 0.02918% and 0.03954% and 0.02602%
Molecule: O=C1OC2(c3ccc(O)cc3Oc3cc(O)ccc32)c2ccccc21 [fluorescein, sodium fluorescein]
CSF/blood fluorescent ([1]; Ager-/- BCCAO): 0.0316% and 0.02179% and 0.01832% and 0.02493% | CSF/blood fluorescent (relative fluorescence units, CSF value/serum value) ([1]; WT Sham, 200 μl of 6 mg/ml via retro-orbital venous sinus, 60 min): 0.03234% and 0.009373% and 0.03651% and 0.03497% and 0.03069% and 0.01619%

inhibition of oxytocin binding to soluble RAGE by RAGE ligand (human esRAGE): weakly or non-specifically inhibited
Molecule: AGEs: glyceraldehyde-derived AGE-BSA, RAGE ligand

inhibition of oxytocin binding to soluble RAGE by RAGE ligand (human esRAGE): weakly or non-specifically inhibited
Molecule: HMGB1: high-mobility group box 1, RAGE ligand (Sigma-Aldrich)

Kd [2]: 179 nM
Molecule: Oxytocin (synthetic) (from UniProt P01178 20-28) (peptide)

inhibition of oxytocin binding to soluble RAGE by RAGE ligand (human esRAGE): weakly or non-specifically inhibited
Molecule: S100B: RAGE ligand S100B (Sigma-Aldrich)

Molecule: [^13C,^15N]oxytocin
[13C,15N]oxytocin in CSF of Ager-/- male mice [3]: undetectable

inhibition of oxytocin binding to soluble RAGE by RAGE ligand (human esRAGE): weakly or non-specifically inhibited
Molecule: amyloid β 1-42

Molecule: arginine-vasopressin
transport by RAGE in the in vitro BBB assay system [4]: did not transport | identification in material eluted from immobilised esRAGE (human serum) (soluble RAGE): did not identify

Molecule: oxytocin (from UniProt P01178)
Kd (oxytocin receptor): 100 nM | Kd [5]: 1 nM
